Numbering of substitutions follows the chain as printed. Numbers in names are those of the source.
B1: GsPutA (Geobacter sulfurreducens PCA) (protein)
chain: MLNSELNTKIVNRGKEFFGSISGEKPSLFNKGAWMGKAMDWSMQNEQFKIQMFRFVDVFPSLTTSKLLTEHIREYFGNEQDMPAFMSTGAKVAGMLGSFGGAVLNKVLTSNIEEMARQFIVGETTKEAVKNLEKLRKDGFAAVVDVLGEATLSEEEAEVYTNTYLELLEALKKEQGSWKGLPGKGGDPGLDWGHAPKVNIAVKPTALFCLANPQDFEGSVVAILDRMRRIFKKVMELNGFLCIDMESYRHKEIILEVFRRLKLEYRDYPHLGIVLQAYLKDNDKDLDDLLAWAKEHKVQISVRLVKGAYWDYETVKAKQNDWEVPVWTIKAESDAAYERQARKILENHQICHFACASHNIRTISAVMEMARELNVPEDRYEFQVLYGMAEPVRKGILKVAGRIRLYAPYGNMVPGMGYLVRRLLENTANESFLRQSFAEDAQIERLLEDPAVTVERERAARAAKPKKERKGLGGLPPFNNEAMVDFTRADHRAAFPKHIAQVRTQLGKTYPLFINGKEVRTNDLIPTVNPNKPSEVLGQICQAGTTEVGDAIAAAKAAFPAWRDTDPRTRAEYLLKAAQAARKRLFELSAWQVLEIGKQWDQAYADVTEAIDFLEYYAREMIRLGQPQRVGHAPGELNHYFYEPKGVAAVIAPWNFPLAISMGMASAAIVTGNCVVFKPSGITSIIGWHLVELFREAGLPEGVFNFTPGRGSVMGDYLVDHPDISLIAFTGSMETGLRIIERAAKVHPGQANVKKIISEMGGKNAIIIDDDADLDEAVPHVLYSAFGFQGQKCSACSRVIVLDAVYDKFIERLVSMAKATKVGPSEDPANYMGAVADDKAMKSIKEYAEIGKREGHVLYESPVPAGEGYFVPMTIIGGIKPEHRIAQEEIFGPVLAVMRAKDFDQAIEWANSTQFALTGGIFSRSPEHLAKARREFRVGNLYINRNNTGALVERQPFGGARMSGVGTKAGGPDYLLHFMDPRVVTENTMRRGFAPIEEDDDWVD
B2: GsPutA (Geobacter sulfurreducens PCA; A206W) (protein)
chain: B1 chain with A206W

Substrate: O=C(O)[C@@H]1CCC=N1
Assay: purified protein
Type: biochemical, Geobacter sulfurreducens
Details: GSALDH site; NAD+ fixed at saturating concentration; L-P5C 0-3.5 mM

Protein | Km | kcat
B1 | 30.0 ± 13.0 µM | 4.7 ± 0.2 s⁻¹
B2 | 65.0 ± 18.3 µM | 6.0 ± 0.2 s⁻¹
